Assay results from US20200308261 (published 2020).

T1: human Aβ 11pE-40 (human)
T1 chain: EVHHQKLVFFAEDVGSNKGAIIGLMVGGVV

T2: rodent Aβ 3pE-40 (rodent)
T2 chain: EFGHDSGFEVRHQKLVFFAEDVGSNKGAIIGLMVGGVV

T3: human Aβ 11pE-42 (human)
T3 chain: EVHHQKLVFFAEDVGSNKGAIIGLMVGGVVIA


Legend:
human Aβ 1-40 [1] = target: human Aβ 1-40 (human); experiment: ELISA sandwich, up to 10 ng/mL
human Aβ 1-42 = human Aβ 1-42 (human); experiment: ELISA sandwich, up to 10 ng/mL
human Aβ 11pE-40 = target: T1, human Aβ 11pE-40; experiment: ELISA sandwich, up to 10 ng/mL
rodent Aβ 3pE-40 = target: T2, rodent Aβ 3pE-40; experiment: ELISA sandwich, up to 10 ng/mL
human Aβ 11pE-42 = target: T3, human Aβ 11pE-42; experiment: ELISA sandwich, up to 10 ng/mL
human Aβ 1-40 [2] = target: human Aβ 1-40 (human); experiment: SPR up to 50 nM

Row | binding result (human Aβ 1-40 [1]) | binding result (human Aβ 1-42) | binding result (human Aβ 11pE-40) | binding result (rodent Aβ 3pE-40) | binding result (human Aβ 11pE-42) | binding result (human Aβ 1-40 [2]) | Binder
1 | no binding | no binding | no binding | no binding | no binding | – | BAMB31 (antibody, V domains shown) VH: EIQLQQSGPELVKPGTSVKVSCKASGHVFTSYDMYWVKQSHGKSLEWIGYIDSDNGDTSYNQKFKGKATLTVDKSSSTAYMHLNSLTSEDSAVYYCAYYRYAMDYWGQGTSVTVSS VL: not shown
2 | – | – | – | – | – | no binding | BAMB31_2a (mIgG2a) (antibody, V domains shown) VH: EIQLQQSGPELVKPGTSVKVSCKASGHVFTSYDMYWVKQSHGKSLEWIGYIDSDNGDTSYNQKFKGKATLTVDKSSSTAYMHLNSLTSEDSAVYYCAYYRYAMDYWGQGTSVTVSS VL: not shown
